Experiments:
Assay in all cases: SPR
Details in all cases: both partners purified
[1] = biological target: SARS-CoV-2 XBB.1.5 RBD (SARS-CoV-2, UniProt P0DTC2)
[2] = biological target: SARS-CoV-2 BQ.1.1 RBD (SARS-CoV-2, UniProt P0DTC2)
[3] = biological target: SARS-CoV-2 XBB.1 RBD (SARS-CoV-2 Omicron XBB.1, strain)
[4] = biological target: SARS-CoV-2 BA.1 RBD (SARS-CoV-2, UniProt P0DTC2)
[5] = biological target: SARS-CoV-2 CH.1.1 RBD (SARS-CoV-2 Omicron CH.1.1, strain)
[6] = biological target: SARS-CoV-2 BA.2.75.2 RBD (SARS-CoV-2 Omicron BA.2.75.2, strain)
[7] = biological target: SARS-CoV-2 BA.2 RBD (SARS-CoV-2 Omicron BA.2, strain)

B1: VIR-7229 Fab fragment (Fab, V domains shown)
VH: EVQLVESGGSVVQPGRALRLSCAASGITFSSFGMYWVRQAPGKGLEWLGYIAYDGSDTYYADSVKGRFTISRDNSKNTLYLQMNSLRIEDTAVYYCAKDYYPLLSYYYGLDVWGQGTTVTVSS
VL: QSVLTQPRSVSGSPGQSVTISCTGTSSDVGAYNYVSWYQQHPGKAPKFMIYDVDQRPSGVPDRFSGSKSGNTASLIISGLQAEDEADYYCSSYAGSYIWVFGGGTQLTVL
notes: source: ExpiCHO (IgG1); Fab by fragmentation of the IgG with the FabLACTICA Fab kit
- Kd [1]: 0.06 nM
- koff [1]: 4.09e-05 s⁻¹
- kon [1]: 752000 M⁻¹ s⁻¹
- Kd [2]: 0.0993 nM
- koff [2]: 5.63e-05 s⁻¹
- kon [2]: 582000 M⁻¹ s⁻¹
- Kd [3]: 0.21 nM
- koff [3]: 0.000108 s⁻¹
- kon [3]: 524000 M⁻¹ s⁻¹
- Kd [4]: 0.434 nM
- koff [4]: 0.000124 s⁻¹
- kon [4]: 285000 M⁻¹ s⁻¹
- Kd [5]: 0.12 nM
- koff [5]: 6.63e-05 s⁻¹
- kon [5]: 586000 M⁻¹ s⁻¹
- Kd [6]: 0.284 nM
- koff [6]: 0.000117 s⁻¹
- kon [6]: 431000 M⁻¹ s⁻¹
- Kd [7]: 0.396 nM
- koff [7]: 9.72e-05 s⁻¹
- kon [7]: 245000 M⁻¹ s⁻¹

Reference: article PMC11645210 (Cell, 2024)
